Experimental data as given in the MegaScale stability set (Tsuboyama et al. 2023).

B1: 2M8U (parent)
chain: TKAQVIEAFKVFDRDGNGYVTVDYLRKVLNELGDMMPADEIEEMIYEADPQNSGYVQYETFVGMLFL

Variants of: B1
Assay: folding stability dG (cDNA display proteolysis); higher = more stable
Settings: PBS, room temperature

Folding stability dG [kcal/mol] of substitutions, site by site:
A38: F 3.53, G 3.41, H 3.57, I 3.69, K 3.69, L 3.59, M 3.76, N 3.45, P 3.47, Q 3.69, R 3.62, S 3.56, T 3.6, V 3.61, W 4, Y 3.5
D39: A 3.7, C 3.74, E 3.59, F 4.09, G 3.77, H 3.71, I 3.83, K 3.79, L 3.89, M 3.92, N 3.68, P 3.68, Q 3.59, R 3.75, S 3.52, T 3.66, V 4.01, W 3.65, Y 3.86
E40: A 3.65, C 3.85, D 3.69, F 3.99, G 4.01, H 4.01, I 3.91, K 3.91, L 3.89, M 3.66, N 4.09, P 3.22, Q 3.64, R 3.96, S 3.7, T 3.78, V 3.74, W 3.75, Y 4.06
I41: A 2.86, C 2.87, D 1.96, E 2.29, F 3.5, G 2.29, H 2.52, K 2.59, L 3.83, M 3.57, N 2.17, P 1.98, Q 2.78, R 3.03, S 2.59, T 2.72, V 3.4, W 3.72, Y 3.35
E42: A 3.26, C 3.11, D 3.37, F 3.06, G 3.04, H 3.01, I 3.25, K 3.22, L 3.16, M 3.3, N 3.49, P 2.64, Q 3.37, R 3.14, S 3.29, T 3.41, V 3.01, W 3.1, Y 2.97
E43: A 3.81, C 3.74, D 3.6, F 3.8, G 3.58, H 4.05, I 3.87, K 3.75, L 3.73, M 3.82, N 3.64, P 3.54, Q 3.9, R 4.37, S 3.74, T 3.73, V 3.78, W 3.87, Y 3.69
M44: A 3.48, C 3.6, D 2.25, E 2.18, F 3.09, G 2.53, H 3.52, I 3.05, K 3.56, L 3.65, N 2.88, P 1.8, Q 2.95, R 3.66, S 2.96, T 2.97, V 3.07, W 3.21, Y 3.21
I45: A 2.37, C 2.67, D 2.39, E 2.15, F 2.61, G 2.2, H 2.08, K 2.41, L 3.19, M 2.88, N 2.17, P 1.88, Q 1.91, R 2.06, S 2.16, T 2.13, V 3, W 2.6, Y 2.5
Y46: A 3.52, C 3.46, D 3.29, E 3.36, F 3.55, G 3.44, H 3.62, I 3.47, K 3.64, L 3.44, M 3.58, N 3.57, P 2.82, Q 3.66, R 3.66, S 3.52, T 3.62, V 3.5, W 3.56
E47: A 3.76, C 3.66, D 3.49, F 3.75, G 3.5, H 3.8, I 3.92, K 4.09, L 3.88, M 3.87, N 3.52, P 2.33, Q 3.96, R 4.15, S 3.71, T 3.73, V 3.85, W 3.76, Y 3.51
A48: C 3.84, D 2.1, E 2.78, F 3.44, G 2.64, H 3.68, I 3.33, K 2.63, L 3.45, M 3.28, N 3.44, P 2.25, Q 3.37, R 2.9, S 3.53, T 3.33, V 3.28, W 3.34, Y 3.48
D49: A 2.62, C 2.7, E 2.25, F 2.43, G 2.36, H 2.3, I 2.49, K 2.14, L 2.43, M 2.71, N 2.75, P 2.15, Q 2.53, R 2.21, S 2.93, T 2.83, V 2.58, W 2.66, Y 2.67
P50: A 3.3, C 3.11, D 2.9, E 2.89, F 3.05, G 3, H 3.07, I 3.23, K 3.39, L 3.21, M 3.05, N 3.05, Q 3.25, R 3.38, S 3.29, T 3.12, V 2.99, W 3.39, Y 3.06
Q51: A 3.47, C 3.71, D 3.56, E 3.48, F 3.58, G 3.43, H 3.54, I 3.31, K 3.45, L 3.53, M 3.49, N 3.46, P 2.52, R 3.3, S 3.49, T 3.56, V 3.34, W 3.49, Y 3.62
N52: A 3.38, C 3.42, D 3.37, E 3.38, F 3.52, G 3.51, H 3.46, I 3.03, K 3.4, L 3.36, M 3.42, P 2.43, Q 3.47, R 3.57, S 3.57, T 3.32, V 3.26, W 3.1, Y 3.31
S53: A 3.19, C 3.18, D 3.02, E 3.09, F 3.16, G 2.94, H 3.11, I 3.21, K 3.39, L 3.2, M 3.23, N 3.26, P 2.4, Q 3.28, R 3.35, T 3.49, V 3.15, W 3.22, Y 3.2
G54: A 2.36, C 2.59, D 2.06, E 2.26, F 2.89, H 2.49, I 2.76, K 2.47, L 2.48, M 2.59, N 2.9, P 2.26, Q 2.29, R 2.56, S 2.48, T 2.35, V 2.48, W 2.82, Y 2.93
Y55: A 2.82, C 3.44, D 2.22, E 3.05, F 3.35, G 2.16, H 3.22, I 3.37, K 3.25, L 3.35, M 3.51, N 3.16, P 1.77, Q 3.48
